Experimental findings from article PMC2905062 are described below.

This assay addresses Axl receptor tyrosine kinase, wildtype (human). In words: co-IP.

For “endogenous growth factor receptor-bound protein 2 (Grb2) of COS7 cells (natural protein)”, the fold Grb2 co-IP'ed with Axl, rhGas6 stimulation against no stimulation was determined as 2 fold.
